Changes are numbered by the printed parent chain. In names and notes the source's numbering stands. One block for each binder: values may come before it. Where no end group is shown, it is not given here.
Columns and labels:
human CCR8 [1] = molecular target: T1, human CCR8 (human, UniProt P51685 1-355); test: cell-based or functional assay
huCCR8 (1-12)-Nb [2] = molecular target: T2, huCCR8 (1-12)-Nb (human, not fully specified (C-terminus); also: fused to nanobody, biotinylated in Fab assay); test: BLI (Octet), mAb on anti-huIgG Fc sensor, peptide-Nb in solution
T2 construct: Expressed in human cells; also called CCR8 peptide-Nb fusion; not shown: nanobody (Nb) fusion partner, any linker or tag to it, and the biotin site
T2 peptide: MDYTLDLSVTTV
Method: (§1) Binding affinities (KD equilibrium dissociation constant) and rate constants (kₐ association rate constant, kd dissociation rate constant) of an Antibody 1 Fab and CCR8-binding monoclonal antibodies (mAbs) of the present invention to a CCR8 1-12 epitope (SEQ ID NO: 82)-nanobody (Nb) fusion protein were measured using an OCTET® Biolayer Interferometry system (Sartorius AG, Göttingen, Germany). The CCR8-nanobody fusion proteins were expressed in human cells. For Fab binding, biotinylated CCR8 peptide-Nb fusions were captured on streptavidin SAX biosensors to loading levels between 2 and 4 nm and then incubated with a dilution series of the soluble Fab (top 100 nM, 6-point, 1:3 serial dilution) for 300 seconds followed by 500 seconds in buffer for dissociation. For mAb binding, mAbs were captured on an anti-huIgG Fc capture biosensor to 1 to 2 nm loading level and then incubated with a dilution series of non-biotinylated CCR8 peptide-Nb fusions (top 100 nM, 6-point, 1:3 serial dilution) for 300 seconds followed by 500 seconds in buffer for dissociation.
(§2) The OCTET® system acquires data over time (seconds) using a mechanism called Biolayer Interferometry; as proteins bind to biosensor tips, a sensitive binding signal in nm is measured by the instrument. All fiber optic tips were used once and then discarded, i.e., no regeneration. OCTET® buffer baselines, dissociation steps, and protein dilutions were made with OCTET® buffer (10 mM TRIS pH 7.5, 150 mM NaCl, 1 mM CaCl₂), 0.13% (v/v) Triton X-100 and 0.10 mg/mL BSA).
(§3) Raw data was processed with GeneData Screener v18 SPR package which uses the same data processing as the OCTET® instrument Data Analysis software (subtract average of two reference wells per column; Align Y-axis to baseline; Interstep correction align to dissociation; and Savitzky-Golay filtering). Each Fab or mAb interaction was grouped into its own sensorgram and globally fit with a 1:1 binding model to determine the association rate constant (kₐ; units M⁻¹ sec⁻¹) and the dissociation rate constant (kd; units sec⁻¹).

huCCR8 (1-25)[C25S]-Nb [3] = molecular target: T3, huCCR8 (1-25)[C25S]-Nb (human, not fully specified; biotinylated for the Fab assay, non-biotinylated for the mAb assay ; biotinylated when captured on streptavidin sensors (Fab assay); non-biotinylated in the mAb assay); test: as above
T3 construct: Expressed in human cells; also called CCR8 peptide-Nb fusion; not shown: nanobody (Nb) fusion partner, any linker or tag to it, and the biotin site
T3 peptide: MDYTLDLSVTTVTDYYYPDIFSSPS

human CCR8 [4] = molecular target: T1, human CCR8; test: cell-based or functional assay; remark: listed apart in the source
[5] = molecular target: T4, cynomolgus monkey CCR8 (comprising threonine at position four) (cynomolgus monkey, UniProt O97665 1-356 (rhesus entry)); test: flow cytometry titration on CHO cells
T4 construct: also called Cyno CCR8; cynomolgus CCR8
Method: (§4) Bound anti-CCR8 antibody molecules were detected with Alexa Fluor 647 conjugated Goat anti-Human IgG (H+L). Cells were subsequently stained with Zombie Violet viability dye, fixed with 4% PFA on ice, and detected by fluorescence cytometry. Equilibrium dissociation constant (Kd) values were calculated by non-linear regression with the one site specific binding evaluation tool of the GraphPad Prism software. “N.D.” means not detectable.

[6] = molecular target: T5, cynomolgus monkey CCR8 (T4R; comprising arginine at position four) (cynomolgus monkey, UniProt O97665 1-356 (rhesus entry)); test: flow cytometry titration on CHO cells; N.D. means not detectable
T5 construct: Expressed on CHO cells; also called cy CCR8 (T4R); Cynomolgus monkey Mauritian origin T4R CCR8
T5 chain: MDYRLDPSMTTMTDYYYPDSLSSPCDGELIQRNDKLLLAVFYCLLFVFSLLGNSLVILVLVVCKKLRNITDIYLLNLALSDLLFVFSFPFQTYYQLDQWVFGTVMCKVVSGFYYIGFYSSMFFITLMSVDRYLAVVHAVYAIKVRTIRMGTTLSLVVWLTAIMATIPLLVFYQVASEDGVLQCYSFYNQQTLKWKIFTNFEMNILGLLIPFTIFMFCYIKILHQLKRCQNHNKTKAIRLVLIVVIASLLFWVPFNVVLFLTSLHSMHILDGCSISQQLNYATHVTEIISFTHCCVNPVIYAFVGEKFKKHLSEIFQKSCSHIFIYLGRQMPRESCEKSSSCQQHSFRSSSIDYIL
Method: as §4

huCCR8 (1-12)-Nb [7] = molecular target: T2, huCCR8 (1-12)-Nb; test: BLI (Octet), biotinylated peptide-Nb on streptavidin sensor, Fab in solution
Method: as §1, §2, §3

huCCR8 (1-25)[C25S]-Nb [8] = molecular target: T3, huCCR8 (1-25)[C25S]-Nb; test: as above
human CCR8 [9] = molecular target: T1, human CCR8; test: cell-based or functional assay; remark: listed apart in the source
human CCR8 [10] = molecular target: T1, human CCR8; test: cell-based or functional assay; remark: listed apart in the source
[11] = molecular target: T5, cynomolgus monkey CCR8 (T4R; comprising …); test: flow cytometry titration on CHO cells
Method: as §4

T1 sequence (P51685 whole entry, the tested form may be a part): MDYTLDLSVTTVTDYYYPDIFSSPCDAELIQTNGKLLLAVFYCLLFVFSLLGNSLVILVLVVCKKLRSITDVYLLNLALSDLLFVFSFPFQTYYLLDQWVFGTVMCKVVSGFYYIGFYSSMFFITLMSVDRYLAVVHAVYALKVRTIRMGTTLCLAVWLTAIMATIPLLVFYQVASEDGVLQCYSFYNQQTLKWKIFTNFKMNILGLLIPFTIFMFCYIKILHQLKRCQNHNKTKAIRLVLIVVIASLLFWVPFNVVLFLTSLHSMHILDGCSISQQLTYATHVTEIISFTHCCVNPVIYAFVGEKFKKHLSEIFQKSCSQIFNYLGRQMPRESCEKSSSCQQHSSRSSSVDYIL

Kd (huCCR8 (1-12)-Nb [2]): 8.1 nM
koff (huCCR8 (1-12)-Nb [2]): 0.00107 s⁻¹
kon (huCCR8 (1-12)-Nb [2]): 132000 M⁻¹ s⁻¹
Kd (huCCR8 (1-25)[C25S]-Nb [3]): 7.2 nM
koff (huCCR8 (1-25)[C25S]-Nb [3]): 0.000798 s⁻¹
kon (huCCR8 (1-25)[C25S]-Nb [3]): 110000 M⁻¹ s⁻¹
B1: huCCR8_44379 (VH: D61S, VL: N67Q_M99G_W109F_S111A)_huIgG1z (mAb) (antibody, V domains shown)
VH: QVQLVESGGGVVQPGRSLRLSCAASGFTFSNYGFHWVRQTPGKGLEWVAVISYSGSNRYYADSVKGRFTISRDNSKNTLYLQMNSLRGEDTALYYCARVYYGSGTYYKNRYYYGMDVWGQGTTVTVSS
VL: SYELTQPPSVSVALGQTARITCGGHNIGSKGVHWYQQKPGQAPVLVIYRQSNRPSGIPERFSGSNSGNTATLTISGTQAGDEADYYCQAFDAGTVVFGGGTQLTVLG
notes: Engineered from scFv MPK20299-A4; afucosylated IgG1, HC without C-terminal lysine
ADCC, Percent Non-Viable cells (EC50 pM), Donor 7 (human CCR8 [1]): 0.28 pM

Kd (huCCR8 (1-12)-Nb [2]): 9 nM
koff (huCCR8 (1-12)-Nb [2]): 0.0011 s⁻¹
kon (huCCR8 (1-12)-Nb [2]): 122000 M⁻¹ s⁻¹
Kd (huCCR8 (1-25)[C25S]-Nb [3]): 9.8 nM
koff (huCCR8 (1-25)[C25S]-Nb [3]): 0.000975 s⁻¹
kon (huCCR8 (1-25)[C25S]-Nb [3]): 99300 M⁻¹ s⁻¹
B2: huCCR8_44379 (VH: D72S, VL: N67A_S68A_M99G_W109F_S111A)_huIgG1z (mAb) (antibody, V domains shown)
VH: B1 VH with S54D, D62S
VL: B1 VL with Q50A, S51A
notes: as for B1
ADCC, Percent Non-Viable cells (EC50 pM), Donor 7 (human CCR8 [1]): 0.48 pM

Kd (huCCR8 (1-12)-Nb [2]): 9.5 nM
koff (huCCR8 (1-12)-Nb [2]): 0.00134 s⁻¹
kon (huCCR8 (1-12)-Nb [2]): 142000 M⁻¹ s⁻¹
Kd (huCCR8 (1-25)[C25S]-Nb [3]): 7.8 nM
koff (huCCR8 (1-25)[C25S]-Nb [3]): 0.00114 s⁻¹
kon (huCCR8 (1-25)[C25S]-Nb [3]): 146000 M⁻¹ s⁻¹
B3: huCCR8_44379 (VH: D61A_D72A, VL: N67Q_M99E_W109F_S111A)_huIgG1z (mAb) (antibody, V domains shown)
VH: B1 VH with S54A, D62A
VL: B1 VL with G80E
notes: as for B1
ADCC, Percent Non-Viable cells (EC50 pM), Donor 7 (human CCR8 [1]): 0.52 pM

Kd [5]: 0.172 nM
binding result [6]: no binding (tested: 0.005-100 nM)
B4: Antibody 1.1 IgG1 (LC: H45Q_S51P) (antibody, V domains shown)
VH: EVQLVESGGGLVKPGGSLRLSCAASGFTFSNARMGWVRQAPGKGLEWVGRIKSKTEGGTRDYAAPVKGRFTISRDDSKNTLYLQMNSLKTEDTAVYYCTSYSGVWGQGTMVTVSS
VL: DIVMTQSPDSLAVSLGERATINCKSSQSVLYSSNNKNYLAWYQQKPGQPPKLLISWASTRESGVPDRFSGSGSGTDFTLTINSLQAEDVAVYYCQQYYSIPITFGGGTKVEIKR
notes: Afucosylated IgG1
ADCC, Percent Non-Viable cells (EC50 pM), Donor 1 (human CCR8 [4]): < 0.256 pM
ADCC, Percent Non-Viable cells (EC50 pM), Donor 2 (human CCR8 [4]): 8.13 pM
ADCC, Percent Non-Viable cells (EC50 pM), Donor 3 (human CCR8 [4]): 2.2 pM

Kd (huCCR8 (1-12)-Nb [7]): 22.6 nM
koff (huCCR8 (1-12)-Nb [7]): 0.0132 s⁻¹
kon (huCCR8 (1-12)-Nb [7]): 584000 M⁻¹ s⁻¹
Kd (huCCR8 (1-25)[C25S]-Nb [8]): 17.4 nM
koff (huCCR8 (1-25)[C25S]-Nb [8]): 0.0106 s⁻¹
kon (huCCR8 (1-25)[C25S]-Nb [8]): 606000 M⁻¹ s⁻¹
B5: Fab (HCVR SEQ ID NO: 13; LCVR SEQ ID NO: 14) (Fab, V domains shown)
VH: B4 VH
VL: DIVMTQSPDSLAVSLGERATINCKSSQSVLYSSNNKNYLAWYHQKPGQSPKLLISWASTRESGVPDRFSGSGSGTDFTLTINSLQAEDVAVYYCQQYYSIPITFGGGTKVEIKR
notes: also called Antibody 1 Fab

Kd (huCCR8 (1-12)-Nb [2]): 60.6 nM
koff (huCCR8 (1-12)-Nb [2]): 0.024 s⁻¹
kon (huCCR8 (1-12)-Nb [2]): 397000 M⁻¹ s⁻¹
B6: huCCR8(32360LC:K38R)_huIgG1z(mAb) (antibody, V domains shown)
VH: B4 VH
VL: not shown
notes: Afucosylated IgG1, HC without C-terminal lysine
ADCC, Percent Non-Viable cells (EC50 pM), Donor 8 (human CCR8 [9]): 3 pM
ADCC, Percent Non-Viable cells (EC50 pM), Donor 9 (human CCR8 [9]): 2.7 pM

Percent Inhibition (IC50 nM) of CCL1-dependent chemotaxis of HUT78 cells (human CCR8 [10]): 0.076 nM
Kd [5]: 0.399 nM
Kd [11]: 0.989 nM
B7: Antibody 2.2 IgG1 (LC: F2I_P51S_H53Q_L103V_N148K, HC: K87N_S94N_V98A)(LC: Y25A, HC: A71L_D72K) (antibody, V domains shown)
VH: QVQLVESGGGVVQPGRSLRLSCAASGFTFSNYGMHWVRQAPGKGLEWVAVISYDGSNKFYLKSVKGRFTISRDNSKNTLYLQMNSLRAEDTAVYYCARAGGIGRFDYWGQGTLVTVSS
VL: DIVMTQTPLSLSVTPGQPASISCKASQSLLHSDGKTYLFWYLQKPGQSPQLLIYEVSNRFSGVPDRFSGSGSGTDFTLKISRVEAEDVGVYYCMQTLKLPLTFGGGTKVEIKR
notes: Afucosylated IgG1
ADCC, Percent Non-Viable cells (EC50 pM), Donor 1 (human CCR8 [4]): < 0.256 pM
ADCC, Percent Non-Viable cells (EC50 pM), Donor 2 (human CCR8 [4]): 6.04 pM
ADCC, Percent Non-Viable cells (EC50 pM), Donor 3 (human CCR8 [4]): 1.8 pM

Reference: US20250171549A1 (Amgen, published 2025)
